Experimental data published in article PMC9120031.

Biological target: FLAG-tagged V-ATPase a3 subunit (full-length) (UniProt Q9JHF5)
Experiment: co-IP; FLAG- and V5-tagged proteins co-expressed in HEK293T cells; lysed 48 h after transfection in IP buffer (1% Triton X-100, 10% glycerol, 50 mM Tris-HCl pH 7.4, 150 mM NaCl, 1 mM dithiothreitol, 1 mM EDTA); precipitated with anti-FLAG antibody; western blot with anti-V5 (or anti-A subunit) antibody

Chain of UniProt Q9JHF5 (Q9JHF5 entry or part of it): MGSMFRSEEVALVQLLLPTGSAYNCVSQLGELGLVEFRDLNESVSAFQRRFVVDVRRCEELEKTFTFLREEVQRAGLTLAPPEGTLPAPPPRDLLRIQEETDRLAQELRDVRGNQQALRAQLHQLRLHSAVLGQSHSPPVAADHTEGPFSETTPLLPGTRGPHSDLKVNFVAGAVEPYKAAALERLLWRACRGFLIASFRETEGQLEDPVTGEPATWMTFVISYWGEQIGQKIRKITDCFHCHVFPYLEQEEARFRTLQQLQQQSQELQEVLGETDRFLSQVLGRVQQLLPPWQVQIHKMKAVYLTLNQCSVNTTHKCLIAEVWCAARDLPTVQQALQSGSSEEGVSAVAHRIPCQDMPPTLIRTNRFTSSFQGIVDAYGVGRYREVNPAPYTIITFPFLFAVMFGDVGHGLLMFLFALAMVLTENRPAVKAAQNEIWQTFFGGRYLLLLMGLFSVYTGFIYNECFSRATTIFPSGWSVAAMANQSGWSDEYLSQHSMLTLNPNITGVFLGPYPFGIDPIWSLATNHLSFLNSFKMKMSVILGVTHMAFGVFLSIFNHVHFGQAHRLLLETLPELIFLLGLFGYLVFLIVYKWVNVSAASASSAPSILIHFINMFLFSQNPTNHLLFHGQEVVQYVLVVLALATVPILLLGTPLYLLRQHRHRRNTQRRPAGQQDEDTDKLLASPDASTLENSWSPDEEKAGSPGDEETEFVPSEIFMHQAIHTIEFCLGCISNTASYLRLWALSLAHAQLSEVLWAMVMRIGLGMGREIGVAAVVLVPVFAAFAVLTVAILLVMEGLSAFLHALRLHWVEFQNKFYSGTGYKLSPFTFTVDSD

- fold increase of Rab7 co-precipitated with a3 when V5-Mon1A and V5-Ccz1 were exogenously expressed, against without them: 3 fold
Substance: V5-tagged GDP-fixed form of Rab7(T22N) (from UniProt P51150 1-207) (natural protein)
